Assay: yeast display, Sf9 membrane polyspecificity reagent, FACS + sequencing; frameworks hold sequencing errors
Outline: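 Nanobodies from a synthetic yeast display library (Saccharomyces cerevisiae BJ5465), induced 36–48 hours with galactose, were stained 1 hour at 4 °C with 10% biotinylated, detergent-solubilized Sf9 membrane reagent, enriched on streptavidin microbeads, then FACS-sorted. Anti-HA (expression) and streptavidin (reagent binding) fluorescence set low and high (top ~1%) gates. Polyreactivity labels come from the gate of origin. Genes were colony-PCR amplified, MiSeq 2 × 250 sequenced and filtered by CDR length.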

| Sequence | polyreactivity (PSR sort gate) |
| --- | --- |
| QVQLVESGGVLVQAGGSLRLSCAASGLTFDPNAMGWYRQAPGKERELVATITQTDGSTYYADSVKGRFTISRDNAKNTVYLQMNSLKPEDTAVYYCDGLVSRGSDYWGQGTQVTVSS | low polyreactivity |
| QVQLVESGGVLVQAGGSLRLSCAASGLTFQPYVMGWYRHAPGKERELVAAISVRTTRTYYADSVKGRFTISRDNAKNTVYLQMNSLKPEDTAVYYCATRGDYWSPYEDDDYWGQGTQLTVSS | low polyreactivity |
| QVQLVESGGVLVQAGGSLRLSCAASGNTFKHYALGGYRQAPGKEREKVAAISRSGASTNYADSVKGRFTISRDNAKNTVYLQMNSLKPEDTAVYYCAAEYSARKAYLYDYWGQGTQVTVSS | high polyreactivity |
| QVQLVESGGVLVQAGGSLRLSCAASGNTFWLNAMGWYRQSPGKERELVDAITYTDGSTYADSVKGRFTISRDNAKNTVYLQMNSLKPEDTAVYYCAVANPSPYEWIAYYYWGQGTQVTVSS | low polyreactivity |
| QVQLVESGGVLVQAGGSLRLSCAASGRIFGRYAMGWYRPAPGKERELVAAISWSGDSTYYADSVKGRFTISRDNSTNTVYLHMNSLKPEDTAVYYCATGGRGGRRYEYWGQGTQVTVSS | low polyreactivity |
| QVQLVESGGVLVQAGGSLRLSCAASGRIFIGYAMGGNRQAPGKERELVAAISSSGGRTYYADSVKGRFTISRDNAKYTVYLQMNSLKPEDSAVYYCAKSFTRNTDYEYWGQGTQVTVSS | high polyreactivity |
| QVQLVESGGVLVQAGGSLRLSCAASGRIFPYYAMGWYRQAPGKEREMVAAINSGGSTYYADSVKGRFTISRDNAKNTVYLQMNSLKPEDTAVYYCNADVLFEDGFFWDDYWGQGTQVTVSS | low polyreactivity |
| QVQLVESGGVLVQAGGSLRLSCAASGRIFTGNAMGWYRQAPGKETELVAAISRRGTRTYYADSVKGRFTISRDNAKNTVYLQMNSLKPEDTAVYYCATVLYKAYNDYGYWGQGTQVTVSS | high polyreactivity |
| QVQLVESGGVLVQAGGSLRLSCAASGRTFAYNTMGWYRQAPGKEREVVAAITWSGGGTYYADSVKGRFTISRDNAKKTVYLQLNSLKPEDTAVYYCAVEYATPRARFRYYYWGQGTKVTVSS | high polyreactivity |
| QVQLVESGGVLVQAGGSLRLSCAASGRTFSVYTMGWYRQAPGKERELVASINWSGGRTYYADSVKGRFTISRDKAKNTVYLQMNSLKPEDTAVYYCAATGWRTLYDYWGQGTQVTVSS | high polyreactivity |
| QVQLVESGGVLVQAGGSLRLSCAASGRTSFYYGVGWSRQAPGKERELVAGINYGGGSTYYADSVKGRFSISRDTAKNTVYLQMNSLKPEDTAVYYCAAYRRTLGDYWGQGTQVTVSS | low polyreactivity |
| QVQLVESGGVLVQAGGSLRLSCAASGSIFAGNAMGWYRQEPGKERELVAAISRSGTRTYYADSVKGRFTISRDNAMNTVYLQMNSLKPEDTAVYYFAAYLPYRQGRYGYEYWGQGTQVTVSS | high polyreactivity |
| QVQLVESGGVLVQAGGSLRLSCAASGSIFGIYTMGWYIHATGKERELVAAISWSGGSTYYADSVKGRFTISRDNAKNTVFLQMNSLKPEDTAVYYCAAVPWASDGYDSWGQGTQVTVSS | low polyreactivity |
| QVQLVESGGVLVQAGGSLRLSCAASGSIFNINAMGWYRQAPGKERELVAAMTSGDGTDYADSVKGRFTISRDNAKNTVYLQMNSLKPEDTAVYYCAAEYYWLVPERFDYWGQGTQVTVSS | low polyreactivity |
| QVQLVESGGVLVQAGGSLRLSCAASGSIYTWYAMGWYRQAPGKERELVAAITRGGSTYADSVKGRFTISRENAKNTVYLQMNSLKPEDTAVYYCNAVYGVYDFNYWGQGTQVTVSS | low polyreactivity |
| QVQLVESGGVLVQAGGSLRLSCAASGSTFYFNTMGWYRQAPGKERELVAAITATGASTYYADSVKGRFTISRDIAKNTVYLQMNSLKPEDTAVYYCNVRLRIRSGYWGQGTQVTVSS | high polyreactivity |
| QVQLVESGGVLVQAGGSLRLTCAASGFIFKIYAMGWYRQAPGKERELVARITRSGGSTYYADSVKGRFTNSRDNAKNTVYLQMNSLKPEDTAVYYCNAELFRYVRYEYWGQGTQVTVSS | high polyreactivity |
| QVQLVESGGVLVQAVGSLRLSCAASGRIFKNYAMGWYIQAPGKESELVAAISWSGGRTYYADSVKGRFTISRDNAKNTVYLQMNSLKPEDTAVYYCAVDFYYYGSRYYYWGQGTQVTVSS | high polyreactivity |
| QVQLVESGGVLVQAVGSLRLSCAASGSISSYYAMGWYIQAPGKERELVAAITSGGRTYYADSVKGRFTISRDNAKNTVYLQMNSLKPEATAVYYCAADPDTWSPHYESLGYYWGQGTQVTVSS | high polyreactivity |
| QVQLVESGGVLVQEGGSLSLSCTASRSIFLKYAMGWYRQAPGKERELVAAISSRDASTYYADSVKGRFSISRDNAKKSVYLQMNSLKPEDTAVYYCNVAQNYWAGLYDYWGQGTQVTVSS | high polyreactivity |
| QVQLVESGLGIVQAGGSLRVSCAASGSTISNYAMGWYRHAPGKERELVAAITSGGTTNYADSVKGRFTISRDNAKNTVYFQMNSLIPEDTAVYYCAKRYSYHVPTHLWVEYYYWGQGTQVTVSS | low polyreactivity |
| QVQLVESGLGLVQAGASLRVSCAASGSTFIFNTMGWSRQAPGKERELVAAIRLSGGSTYYADSVKGRFTITRDNAKNTVYLQMNSLNPEDTAVYYCARRLATRGHTYDYWGQGTQVTVSS | low polyreactivity |

| Sequence | polyreactivity (PSR sort gate) |
| --- | --- |
| QVQLVESGLGLVQAGGSLRLSCAASGFTFTGYAMGWYRQAPGKERELVAAITRGGGSTYYADSVKGRFTISRDNAKNTVYLQMNSLKPEDTAVYYCAAQRSRLIRISSPYYGHEYWVQGTQVTVSS | low polyreactivity |
| QVQLVESGLGLVQAGGSLRLSCAASGRTFYYNAMGWYRQAPGKERELVAAISWSGGNTYYADSVKARFTISRDNAKNTVYLQMNSLKPEDTAVYYCAAVYRYYPGYDYWGHGTQVTVSS | high polyreactivity |
| QVQLVESGPGLFQAGGSLRLSCAASGNIFGYNVMAWYRQAPGKERELVAAITWSAGTTNYADSLKGRFTISRDNAKNTVYLQRNSLKPEDTAVYYFAVTWWYQDYDLTCYLYDYWGQGTEVTVSS | low polyreactivity |
| QVQLVESGPGLVQAGGSLRLSCAASGSTFAPYALGWYRQAPGIEMELVAAIRSSGGSTYYADSVKGGFTISRDNAKNTVYLQMNSLKPEDTAVYYCADDYYTSADYVDYYYWGQGTQVTVSS | low polyreactivity |
| QVQLVESGRGFVQAGGSLRLSCADSGSTFRYYAMGWYRQAPGKERELVAAISWSGGSTYYADSVKGRFTISRDNAKNTVYLQMNSLKPEDTAVYYCAAEVYLVGSRWGPRYGDYWGQGTQVTVSS | high polyreactivity |
| QVQLVESGRGIVQAGGSLRLSCAASGSIFWLYAMGWYRQAPGKERELVAAISWSGTSTNYADSVKGRFTISRDNAKNTVYFQMNSLKPEDTAVYYCAKRWYNQKLFGYEEEYDYWGQGTQVTVSS | low polyreactivity |
| QVQLVESGRGIVQAGGSLRLSCAASGSTLNDYAMGSSRPAPGKERELVAAINGSGGSTYYADSVKGRFTISRDNAKNTVYLQMNSLKPEDTAVYYCAAATTHRRRYGYWGQGTQVTVSS | low polyreactivity |
| QVQLVESGRGLFQAGGRLRLSCAASGRIFSFYAMGWSRQAPGKERELVASITSGGITNYADSVKGRFTISRDNAKNTVYLQMNSLKPEDTAVYYCNAANPYRRVGSFTYKYDYWGQGTQVTVSS | low polyreactivity |
| QVQLVESGRGLVQAGGILRLSCDASGRTIYFNRMGWYRHAPGKEREFVAAINRSGGSTYYADSVKGRFTISRDNAKNTVYLQMNSLKPEDTAVYYCAADGVIFEYDYWGQGTQVTVSS | low polyreactivity |
| QVQLVESGRGLVQAGGRHRISCAASGSIIHDYAMGLYSQAPGKERELVAVISTSGGSTYYADSVKGRFTMSRDNAKNTVYLQMISLKPEETEVYYCNARTVGPYPSHAALEYDSWGPGTQVTVSS | low polyreactivity |
| QVQLVESGRGLVQAGGRLRLSCAASGSTFDGYAMGLYRQAPGKERELVAAITVSVGSTYYADSVKGRFTISRDNAKNTVYLQMNSLKPEDTAVYYCAADYDYQYRYYYWGQGTKVTVSS | low polyreactivity |
| QVQLVESGRGLVQAGGSLRISCAASGFTFRKYTMGWNRQAPGKERELVAAISRRGGSTYYADSVKSRFTISRDNAKNTVYLQMNSLKPEVTAVYYCATDHIPSVGVDYWGQGTQVTVSS | high polyreactivity |
| QVQLVESGRGLVQAGGSLRLRCAASGFTIYPYVMGWYRQAPGKERELVAAISWSGGRTSYADSVKGRFTISRDNAKNTVYLQMNSLKPEDTAVYYCATRPSHVLSEMDYWGQGTQVTVSS | low polyreactivity |
| QVQLVESGRGLVQAGGSLRLSCAASGFIFAKYDMGCYSKAPVKERELVAAITRSGARTYYADSVKGRFTISRDNAKTTVYLQMNSLKPEDTAVYYCAIVTTVYTYDYWGQGTQVTVSS | high polyreactivity |
| QVQLVESGRGLVQAGGSLRLSCAASGFTFYRYAMGWYRQAPGKERELVATISASGGSTYYADSVKGRFTISRDNAKNTVYLQMNSLKPVDTAVFYCARYIYRSAFDYWGQGTQVTVSS | high polyreactivity |
| QVQLVESGRGLVQAGGSLRLSCAASGFTLICNARGCYRQAPGKERELVAAITWSGGSTYYADSVKGRFTISRDKAKNTVYLQMNSLKPEDTAVYYCAADYSIQSNDDWGQGTQVTVSS | low polyreactivity |
| QVQLVESGRGLVQAGGSLRLSCAASGGTFGNNDMGWYRQAPGKERELVAAIRSAGTTYYADSVKGRFTISRDNAKNTVYLQMNSLKPEDTAVYYCNAYTTGYWSYGFQYYGEDYWGQGTQVTVSS | low polyreactivity |
| QVQLVESGRGLVQAGGSLRLSCAASGITFYTYAMGWYRQEPGKARELVATISSGGSTDYADSVKGRFTISRDNAKITVYLQMNSLKPEDTAVYYCADQYSYRIYYLYDYWGQGTQVTVSS | low polyreactivity |
| QVQLVESGRGLVQAGGSLRLSCAASGLIFGRNAMGWYIQAPGKERECVAANTSGGSTYYADSVKGRFTISRDNAKNSVYLQMNSLKPEDTAVYYCAADVVDLYLLDYWGQGTQVTVSS | low polyreactivity |
| QVQLVESGRGLVQAGGSLRLSCAASGLTFGHYAMGGYRQAPGKERELVAAITSGGRTYYADSVKGRFTISRDNAKNTVYLQMNSLKPEDTAVYYCATRGPRYRYYYWGQGTQVTVSS | high polyreactivity |
| QVQLVESGRGLVQAGGSLRLSCAASGRIFNLNAMGWYRQAPGKERELVAAITRGGRTIYADSVKGRFTISRDNAQNTVYLQMNSLKPEDTAVYYCAAAYYGSHGRYDYWGQGTQVTVSS | high polyreactivity |

Reference: the nanobody polyreactivity screen of Harvey et al. (2022)
